Experimental findings from doi:10.1101/2020.11.04.368480 are described below.

This assay addresses light chain of the anti-IL8 IgG1 mAb of the CHO DP-12 cell line. Kind of assay: SEC + native MS.

As to “light chain of the anti-IL8 IgG1 mAb of the CHO DP-12 cell line (antibody)”, the stoichiometry N is 2.
